Data as given in US20110166062A1 (INDIANA UNIVERSITY RESEARCH AND TECHNOLOGY, published 2011).
*1 amine or outer side, *2 acyl side, *3 side chain or, on linkers, in order; H or OH if unused. Bridges are numbered along the chain shown (N, C = ends). Primed or numbered codes have the meaning given here. Where no end group is shown, it is not given here. Side-chain parts run from the residue outwards. [ ]: non-standard residue; d: D form. The star is where a group is joined. Cys(PEG 40 kDa) = Cys with a 40 kDa PEG covalently attached to its side chain (alpha amino acetyl-capped, Ac); PEG 40 kDa″ = polyethylene glycol of 40 kDa covalently attached to the side chain; γGlu = O=C(O)[C@H](CCC(=O)[*:2])N[*:1]; Palmitoyl = CCCCCCCCCCCCCCCC(=O)*; Myristoyl = CCCCCCCCCCCCCC(=O)*; PEG = not defined here; Aib = CC(C)(N)C(=O)O

T1: GIP receptor (UniProt P48546 22-466)
T1 sequence (looked up): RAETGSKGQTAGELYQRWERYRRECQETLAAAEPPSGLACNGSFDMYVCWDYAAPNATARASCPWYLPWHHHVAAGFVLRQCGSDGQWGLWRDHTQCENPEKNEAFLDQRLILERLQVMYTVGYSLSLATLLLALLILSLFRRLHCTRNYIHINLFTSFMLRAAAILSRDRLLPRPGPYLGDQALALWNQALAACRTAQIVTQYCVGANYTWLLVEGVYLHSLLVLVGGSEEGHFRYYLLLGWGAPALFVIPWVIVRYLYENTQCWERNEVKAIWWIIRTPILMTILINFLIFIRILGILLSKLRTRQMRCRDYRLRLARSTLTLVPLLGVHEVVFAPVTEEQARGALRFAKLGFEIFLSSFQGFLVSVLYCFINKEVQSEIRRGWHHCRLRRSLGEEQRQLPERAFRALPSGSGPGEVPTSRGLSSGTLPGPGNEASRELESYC

T2: GIP receptor (UniProt P48546 22-466)
T2 sequence (looked up): T1 sequence (looked up)

B1: mt-358 (peptide)
peptide: Y[Aib]QGTFISDYSIYLDKQAA[Aib]EFVNWLLAGGPSSGAPPPSK(Palmitoyl)-NH2
modifications: N-terminus assumed
SMILES: CCCCCCCCCCCCCCCC(=O)NCCCC[C@H](NC(=O)[C@H](CO)NC(=O)[C@@H]1CCCN1C(=O)[C@@H]1CCCN1C(=O)[C@@H]1CCCN1C(=O)[C@H](C)NC(=O)CNC(=O)[C@H](CO)NC(=O)[C@H](CO)NC(=O)[C@@H]1CCCN1C(=O)CNC(=O)CNC(=O)[C@H](C)NC(=O)[C@H](CC(C)C)NC(=O)[C@H](CC(C)C)NC(=O)[C@H](Cc1c[nH]c2ccccc12)NC(=O)[C@H](CC(N)=O)NC(=O)[C@@H](NC(=O)[C@H](Cc1ccccc1)NC(=O)[C@H](CCC(=O)O)NC(=O)C(C)(C)NC(=O)[C@H](C)NC(=O)[C@H](C)NC(=O)[C@H](CCC(N)=O)NC(=O)[C@H](CCCCN)NC(=O)[C@H](CC(=O)O)NC(=O)[C@H](CC(C)C)NC(=O)[C@H](Cc1ccc(O)cc1)NC(=O)[C@@H](NC(=O)[C@H](CO)NC(=O)[C@H](Cc1ccc(O)cc1)NC(=O)[C@H](CC(=O)O)NC(=O)[C@H](CO)NC(=O)[C@@H](NC(=O)[C@H](Cc1ccccc1)NC(=O)[C@@H](NC(=O)CNC(=O)[C@H](CCC(N)=O)NC(=O)C(C)(C)NC(=O)[C@@H](N)Cc1ccc(O)cc1)[C@@H](C)O)[C@@H](C)CC)[C@@H](C)CC)C(C)C)C(N)=O
B2: mt-354 (peptide)
peptide: Y[Aib]EGTFTSDYSIYLDKQAA[Aib]EFVNWLLAGGPSSGAPPPSK(Myristoyl)C-NH2
modifications: also: homodimer: two monomers linked by a disulfide bond between their C-terminal Cys41 residues
B3: mt-357 (peptide)
peptide: Y[Aib]QGTFISDYSIYLDKQAA[Aib]EFVNWLLAGGPSSGAPPPSK-NH2
modifications: N-terminus assumed
SMILES: CC[C@H](C)[C@H](NC(=O)[C@H](CO)NC(=O)[C@H](Cc1ccc(O)cc1)NC(=O)[C@H](CC(=O)O)NC(=O)[C@H](CO)NC(=O)[C@@H](NC(=O)[C@H](Cc1ccccc1)NC(=O)[C@@H](NC(=O)CNC(=O)[C@H](CCC(N)=O)NC(=O)C(C)(C)NC(=O)[C@@H](N)Cc1ccc(O)cc1)[C@@H](C)O)[C@@H](C)CC)C(=O)N[C@@H](Cc1ccc(O)cc1)C(=O)N[C@@H](CC(C)C)C(=O)N[C@@H](CC(=O)O)C(=O)N[C@@H](CCCCN)C(=O)N[C@@H](CCC(N)=O)C(=O)N[C@@H](C)C(=O)N[C@@H](C)C(=O)NC(C)(C)C(=O)N[C@@H](CCC(=O)O)C(=O)N[C@@H](Cc1ccccc1)C(=O)N[C@H](C(=O)N[C@@H](CC(N)=O)C(=O)N[C@@H](Cc1c[nH]c2ccccc12)C(=O)N[C@@H](CC(C)C)C(=O)N[C@@H](CC(C)C)C(=O)N[C@@H](C)C(=O)NCC(=O)NCC(=O)N1CCC[C@H]1C(=O)N[C@@H](CO)C(=O)N[C@@H](CO)C(=O)NCC(=O)N[C@@H](C)C(=O)N1CCC[C@H]1C(=O)N1CCC[C@H]1C(=O)N1CCC[C@H]1C(=O)N[C@@H](CO)C(=O)N[C@@H](CCCCN)C(N)=O)C(C)C
B4: mt-356 (peptide)
peptide: Y[Aib]QGTFTSDYSIYLDKQAA[Aib]EFVNWLMNGGPSSGAPPPSK-NH2
modifications: N-terminus assumed
SMILES: CC[C@H](C)[C@H](NC(=O)[C@H](CO)NC(=O)[C@H](Cc1ccc(O)cc1)NC(=O)[C@H](CC(=O)O)NC(=O)[C@H](CO)NC(=O)[C@@H](NC(=O)[C@H](Cc1ccccc1)NC(=O)[C@@H](NC(=O)CNC(=O)[C@H](CCC(N)=O)NC(=O)C(C)(C)NC(=O)[C@@H](N)Cc1ccc(O)cc1)[C@@H](C)O)[C@@H](C)O)C(=O)N[C@@H](Cc1ccc(O)cc1)C(=O)N[C@@H](CC(C)C)C(=O)N[C@@H](CC(=O)O)C(=O)N[C@@H](CCCCN)C(=O)N[C@@H](CCC(N)=O)C(=O)N[C@@H](C)C(=O)N[C@@H](C)C(=O)NC(C)(C)C(=O)N[C@@H](CCC(=O)O)C(=O)N[C@@H](Cc1ccccc1)C(=O)N[C@H](C(=O)N[C@@H](CC(N)=O)C(=O)N[C@@H](Cc1c[nH]c2ccccc12)C(=O)N[C@@H](CC(C)C)C(=O)N[C@@H](CCSC)C(=O)N[C@@H](CC(N)=O)C(=O)NCC(=O)NCC(=O)N1CCC[C@H]1C(=O)N[C@@H](CO)C(=O)N[C@@H](CO)C(=O)NCC(=O)N[C@@H](C)C(=O)N1CCC[C@H]1C(=O)N1CCC[C@H]1C(=O)N1CCC[C@H]1C(=O)N[C@@H](CO)C(=O)N[C@@H](CCCCN)C(N)=O)C(C)C
B5: mt-294 (peptide)
peptide: Y[Aib]EGTFTSDYSIYLDEQAAKEFVNWLLAGGPSSGAPPPSC(PEG)-NH2
modifications: lactam 16-20; reading uncertain; also: PEG on Cys40 via thioether from haloacetyl
B6: mt-376 (peptide)
peptide: YXEGTFTSDYSIYLDKQAAXEFVNWLLAGGPSSGAPPPSKC
modifications: C-terminal amide; acylation at position 40 of each monomer, no spacer; monomers linked via a PEG at C-terminal Cys residues
B7: mt-377 (peptide)
peptide: B6 peptide
modifications: C-terminal amide; acylation at position 40 of each monomer, no spacer; monomers linked via a PEG at C-terminal Cys residues

Biological target: glucagon receptor (UniProt P47871 26-477, limits assumed)
Assay: cell-based or functional assay
Target sequence in this assay (P47871 26-477 limits assumed): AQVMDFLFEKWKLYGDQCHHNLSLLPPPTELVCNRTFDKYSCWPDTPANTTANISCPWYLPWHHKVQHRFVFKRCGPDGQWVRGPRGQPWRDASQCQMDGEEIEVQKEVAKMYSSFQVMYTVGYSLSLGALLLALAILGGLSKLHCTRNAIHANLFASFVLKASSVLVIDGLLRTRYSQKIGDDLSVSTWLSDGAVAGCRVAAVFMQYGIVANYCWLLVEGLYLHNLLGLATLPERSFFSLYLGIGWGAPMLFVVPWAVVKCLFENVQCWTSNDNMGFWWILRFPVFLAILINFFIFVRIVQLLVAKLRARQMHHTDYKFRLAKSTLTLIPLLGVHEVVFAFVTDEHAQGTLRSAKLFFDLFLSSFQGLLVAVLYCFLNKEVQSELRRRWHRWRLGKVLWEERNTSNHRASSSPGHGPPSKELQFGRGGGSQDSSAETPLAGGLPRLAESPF

Binder | EC50 | relative activity
Y[Aib]QGTFTSEYSKYLDEQAAKEFVNWLLAGGPSSGAPPPSC-NH2 (lactam 9-12, 16-20; not fully specified) [mt-209] | 4.66 nM | 0.9%
Y[Aib]QGTFTSDYSIYLDEQAAKEFVNWLLAGKGKKNWLKHNITQC-NH2 (lactam 16-20) [mt-207] | 3.2 nM | 1.31%
Y[Aib]EGTFTSDYSIYLDEQAAKEFVNWLLAGKGKKNWLKHNITQC-NH2 (lactam 16-20) [mt-206] | 331 nM | 0.01%
Y[Aib]EGTFTSDYSIYLDEQAAKEFVNWLLAGKGKKNWLKHNITQC(PEG 40 kDa″)-NH2 (lactam 16-20) [mt-208] | 448 nM | 0.01%

Biological target: GLP-1 receptor (UniProt P43220 24-463, limits assumed)
Assay: cell-based or functional assay

Binder | EC50 | relative activity
Y[Aib]QGTFTSEYSKYLDEQAAKEFVNWLLAGGPSSGAPPPSC-NH2 (lactam 9-12, 16-20; not fully specified) [mt-209] | 2.34 nM | 1.33%
Y[Aib]QGTFTSDYSIYLDEQAAKEFVNWLLAGKGKKNWLKHNITQC-NH2 (lactam 16-20) [mt-207] | 0.073 nM | 42.5%
Y[Aib]EGTFTSDYSIYLDEQAAKEFVNWLLAGKGKKNWLKHNITQC-NH2 (lactam 16-20) [mt-206] | 0.095 nM | –
Y[Aib]EGTFTSDYSIYLDEQAAKEFVNWLLAGKGKKNWLKHNITQC(PEG 40 kDa″)-NH2 (lactam 16-20) [mt-208] | 0.262 nM | –

Biological target: T1, GIP receptor
Assay: cell-based or functional assay

Binder | EC50 | relative activity
Y[Aib]QGTFTSEYSKYLDEQAAKEFVNWLLAGGPSSGAPPPSC-NH2 (lactam 9-12, 16-20; not fully specified) [mt-209] | 1.05 nM | 1.42%
Y[Aib]QGTFTSDYSIYLDEQAAKEFVNWLLAGKGKKNWLKHNITQC-NH2 (lactam 16-20) [mt-207] | 0.622 nM | 2.41%
Y[Aib]EGTFTSDYSIYLDEQAAKEFVNWLLAGKGKKNWLKHNITQC-NH2 (lactam 16-20) [mt-206] | 0.115 nM | –
Y[Aib]EGTFTSDYSIYLDEQAAKEFVNWLLAGKGKKNWLKHNITQC(PEG 40 kDa″)-NH2 (lactam 16-20) [mt-208] | 0.313 nM | –

Biological target: glucagon receptor (UniProt P47871 26-477, limits assumed)
Assay: cell-based or functional assay
Remark: another data set of the same source
Target sequence in this assay (P47871 26-477 limits assumed): as the sequence (P47871 26-477 limits assumed) above

Binder | EC50, nM; Glucagon Receptor | relative activity; Glucagon Receptor
B1 | 0.0087 nM | 1270%
Y[Aib]QGTFTSDYSIYLDEQAAKEFVNWLLAGGPSSGAPPPSK([Ala-Cys(PEG 40 kDa)-Ac])-NH2 (lactam 16-20) [mt-225] | 2.71 nM | –
B2 | 2.61 nM | 1.45%
Y[Aib]EGTFTSDYSIYLDKQAA[Aib]EFVNWLLAGGPSSGAPPPSK([γGlu-γGlu-Palmitoyl])-NH2 [mt-367] | 0.82 nM | –
B3 | 0.042 nM | 261%
B4 | 0.0869 nM | 126%
B5 | 230 nM | 0.01%

Biological target: GLP-1 receptor (UniProt P43220 24-463, limits assumed)
Assay: cell-based or functional assay
Remark: another data set of the same source

Binder | EC50, nM; GLP-1 Receptor | relative activity; GLP-1 Receptor
B1 | 0.083 nM | 13%
Y[Aib]QGTFTSDYSIYLDEQAAKEFVNWLLAGGPSSGAPPPSK([Ala-Cys(PEG 40 kDa)-Ac])-NH2 (lactam 16-20) [mt-225] | 0.098 nM | –
B6 | 0.0106 nM | –
B7 | 0.0076 nM | –
B2 | 0.0088 nM | 137%
Y[Aib]EGTFTSDYSIYLDKQAA[Aib]EFVNWLLAGGPSSGAPPPSK([γGlu-γGlu-Palmitoyl])-NH2 [mt-367] | 0.0039 nM | –
B3 | 1.25 nM | 0.86%
B4 | 0.0048 nM | 224%
B5 | 0.0608 nM | 12.7%

Biological target: T2, GIP receptor
Assay: cell-based or functional assay

Binder | EC50, nM; GIP Receptor | relative activity; GIP Receptor
B1 | 0.0045 nM | 306%
Y[Aib]QGTFTSDYSIYLDEQAAKEFVNWLLAGGPSSGAPPPSK([Ala-Cys(PEG 40 kDa)-Ac])-NH2 (lactam 16-20) [mt-225] | 1.9 nM | –
B6 | 0.0068 nM | –
B7 | 0.0031 nM | –
B2 | 0.0046 nM | 91.7%
Y[Aib]EGTFTSDYSIYLDKQAA[Aib]EFVNWLLAGGPSSGAPPPSK([γGlu-γGlu-Palmitoyl])-NH2 [mt-367] | 0.0014 nM | –
B3 | 0.0066 nM | 206%
B4 | 0.053 nM | 25.7%
B5 | 0.373 nM | 2.95%
